Kd data for one substance are collected here from patent US20100016275A1, “NOVEL COMPOUND 395” (priority 2008, published 2010).

The test addresses T1, human CXCR2 receptor (Homo sapiens, UniProt P25025).
T1 construct: expressed in transfected cells; host or cells: HEK293, stably transfected geneticin-resistant clones, vector RcCMV; membranes purified by sucrose gradient
T1 sequence (P25025 1-360): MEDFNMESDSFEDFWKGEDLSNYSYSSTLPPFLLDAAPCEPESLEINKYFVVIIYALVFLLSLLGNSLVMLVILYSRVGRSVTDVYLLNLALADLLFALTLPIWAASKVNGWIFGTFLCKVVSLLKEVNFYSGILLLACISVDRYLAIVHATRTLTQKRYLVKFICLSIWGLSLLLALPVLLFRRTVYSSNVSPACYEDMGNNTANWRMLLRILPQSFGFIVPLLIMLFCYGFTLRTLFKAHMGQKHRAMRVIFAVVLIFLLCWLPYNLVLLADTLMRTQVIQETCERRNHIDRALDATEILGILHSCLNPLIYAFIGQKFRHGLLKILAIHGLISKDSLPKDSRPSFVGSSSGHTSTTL
The test can be described thus: Potency (pIC50) ligand binding assay, inhibition of [125I]IL-8 binding. Conditions: human CXCR2 membranes; read-out: Kd (equilibrium dissociation constant) determined for IL-8. As for the experimental part:
Potency (pIC50)—Ligand Binding Assay
The potency of antagonists at the human CXCR2 receptor was determined in vitro by quantifying their ability to inhibit specific binding of the CXCR2 radioligand, [^125I]interleukin-8 (IL-8), from membranes of HEK293 cells transfected with the human recombinant CXCR2 receptor.
Commercially sourced materials were obtained as follows: U-bottomed 96-well plates (3799) and 225 cm^2 vented cap culture flasks (3001) from Costar, Corning, Kent, UK. Multiscreen filter plates (0.45 μm; MAHV N45 50), vacuum manifold and pump (XF54 230 50) from Millipore, Watford, UK. N-[2-hydroxyethyl]piperazine-N′-[2ethanesulphonic acid] (HEPES; H-3375), ethylene diamine-tetraacetic acid (EDTA; E1644), magnesium chloride (M-9272), gelatin (G9382), dithiothreitol (DTT; D06052), sodium chloride (S3160/63), sodium hydroxide (B6506), bacitracin (B0125), inactivated foetal calf serum (FCS; CR0848) and DMSO Fluka Chemika (41648) from Sigma, Poole, UK. MicroScint-O (6013611) Packard BioScience, Pangboume, UK. Complete protease inhibitor cocktail tablets (1836145) from Boehringer s Mannheim, GmbH, Germany. Human recombinant [^125I]IL-8 74 TBq/mmol, 0.712 MBq/ml (IM249) from Amersham, Horsham UK. All other tissue culture reagents were purchased from Invitrogen, Paisley, Scotland, UK. All other chemical reagents were analytical grade from Fisher Scientific, Loughborough, UK
HEPES-buffered salt solution pH 7.4 containing HEPES (10 mM), potassium chloride (2.7 mM), sodium chloride (137 mM), potassium hydrogen phosphate (0.4 mM), calcium chloride (1.8 mM), magnesium chloride (1 mM), gelatin (0.1% (w/v)) and bacitracin (100 μg/ml).
HEPES-buffered Tyrode's solution pH 7.4 containing HEPES (10 mM), potassium chloride (2.7 mM), sodium chloride (137 mM), potassium hydrogen phosphate (0.4 mM), glucose (11 mM).
Hypotonic buffer: 3:1 mix of water: HEPES-buffered Tyrode's solution.
HEK293 cells were transfected with human CXCR2 (EMBL L19593) cDNA, previously cloned into the eukaryotic expression vector RcCMV. Cloned cell-lines were generated from stably-transfected geneticin-resistant populations. Cells were routinely grown to approximately 80% confluence in DMEM medium containing 10% (v/v) foetal calf serum and glutamine (2 mM) in a humidified incubator at 37° C., 5% CO2. Cells were harvested from flasks using Accutase™ at 37° C. for 3 to 5 minutes and resuspended on ice in hypotonic buffer at a density of 2×10^7 cells/mL. Membranes were prepared on ice by homogenisaton using a polytron tissue homogenizer set at 22000 rpm. The membrane fraction was purified by sucrose gradient centrifugation where homogenised cells were layered onto 41% (w/v) sucrose solution then centrifuged at 140000 g for 1 hour at 4° C. The membrane fraction was harvested at the interface, diluted 4-fold with HEPES-buffered Tyrode's solution and centrifuged at 100000 g for 20 minutes at 4° C. The membrane pellet was re-suspended at 1×10^8 cell equivalents/mL in HEPES-buffered Tyrode's solution and subsequently stored in aliquots at −80° C. All buffers used for membrane preparation and storage were made in the presence of 1 mM DTT and Complete Protease Inhibitor™ cocktail tablets, made up to manufacturers instructions.
Assays were performed in HEPES-buffered salt solution in 96-well plates. [^125I]IL-8 was used at a final concentration of 0.06 nM, pre-diluted from a 9.6 nM stock. The final DMSO concentration in the assay was 1% (v/v). Test compounds were prepared by serial dilution in DMSO followed by a ten-fold dilution into HEPES-buffered salt solution to give a working solution containing compound and 10% DMSO. The control for total binding (B0) of [^125I]IL-8 was determined in the absence of compound. The control for non-specific binding (NSB) was determined by measuring [^125I]IL-8 binding in the presence of (1R)-5-[[(3 -chloro-2-fluorophenyl)methyl]thio]-7-[[2-hydroxy-1-methylethyl]amino]thiazolo[4,5-d]pyrimidin-2(3H)-one dihydrate, sodium salt at 1 μM final concentration. […]

In the case of “IL-8: interleukin-8, CXCR2 ligand, used as the human recombinant [125I] radioligand”, the Kd came out at 1.2 nM.
